In US20160297884A1 (Pfizer, published 2016):
Numbering of substitutions follows the chain as printed.

T1: Human BCMA (human, UniProt Q02223 1-54, limits assumed)
T1 construct: Soluble analyte in SPR; construct not described; also called huBCMA; B-cell maturation antigen
T1 sequence (looked up): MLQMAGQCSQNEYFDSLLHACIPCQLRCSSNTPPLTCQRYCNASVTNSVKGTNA

B1: L3.PY/L1.AH/H2.LT (antibody, V domains shown)
VH: EVQLLESGGGLVQPGGSLRLSCAASGFTFGSYAMTWVRQAPGKGLEWVSAISLTGGNTFYADSVKGRFTISRDNSKNTLYLQMNSLRAEDTAVYYCARVSPIASGMDYWGQGTLVTVSS
VL: EIVLTQSPGTLSLSPGERATLSCRASQSVSAHYLAWYQQKPGQAPRLLIYGASSRATGIPDRFSGSGSGTDFTLTISRLEPEDFAVYYCQHYPYPPSFTFGQGTKVEIK
notes: IgG
B2: L3.PY/L1.PS/H2.LT (antibody, V domains shown)
VH: B1 VH
VL: B1 VL with A31S, H32S, L34P, A35S
notes: IgG
B3: L3.PY/L1.PS/H3.AQ (antibody, V domains shown)
VH: B1 VH with L53G, T54S, S104A, G105Q
VL: B1 VL with A31S, H32S, L34P, A35S
notes: IgG
B4: L3.PY/L1.PH/P6E01 (antibody, V domains shown)
VH: B1 VH with L53G, T54S
VL: B1 VL with A31P
notes: IgG
B5: L3.PY/L1.AH/H3.YA (antibody, V domains shown)
VH: B1 VH with L53G, T54S, A103Y, S104A
VL: B1 VL
notes: IgG
B6: L3.PY/L1.AH/H3.AE (antibody, V domains shown)
VH: B1 VH with L53G, T54S, S104A, G105E
VL: B1 VL
notes: IgG
B7: L3.PY/L1.AH/P6E01 (antibody, V domains shown)
VH: B1 VH with L53G, T54S
VL: B1 VL
notes: IgG
B8: L3.PY/L1.AH/H2.QR (antibody, V domains shown)
VH: B1 VH with L53G, T54S, S63Q, V64R
VL: B1 VL
notes: IgG
B9: L3.PY/L1.AH/H2.YQ (antibody, V domains shown)
VH: B1 VH with L53Y, T54Q
VL: B1 VL
notes: IgG
B10: L3.PY/L3.KF/P6E01 (antibody, V domains shown)
VH: B1 VH with L53G, T54S
VL: B1 VL with A31S, H32S, Q90K, H91F
notes: IgG
B11: L3.PY/L1.PS/H2.YQ (antibody, V domains shown)
VH: B1 VH with L53Y, T54Q
VL: B1 VL with A31S, H32S, L34P, A35S
notes: IgG
B12: L3.PY/L1.AH/H2.QL (antibody, V domains shown)
VH: B1 VH with L53G, T54S, S63Q, V64L
VL: B1 VL
notes: IgG
B13: L3.PY/L1.PS/H3.YA (antibody, V domains shown)
VH: B1 VH with L53G, T54S, A103Y, S104A
VL: B1 VL with A31S, H32S, L34P, A35S
notes: IgG
B14: L3.PY/L1.PS/H3.AE (antibody, V domains shown)
VH: B1 VH with L53G, T54S, S104A, G105E
VL: B1 VL with A31S, H32S, L34P, A35S
notes: IgG
B15: L3.PY/L3.KY/P6E01 (antibody, V domains shown)
VH: B1 VH with L53G, T54S
VL: B1 VL with A31S, H32S, Q90K, H91Y
notes: IgG
B16: L3.PY/L1.FF/P6E01 (antibody, V domains shown)
VH: B1 VH with L53G, T54S
VL: B1 VL with A31S, H32F, Y33F
notes: IgG
B17: L3.PY/L1.PS/H2.HA (antibody, V domains shown)
VH: B1 VH with L53H, T54A
VL: B1 VL with A31S, H32S, L34P, A35S
notes: IgG
B18: L3.PY/L1.PS/P6E01 (antibody, V domains shown)
VH: B1 VH with L53G, T54S
VL: B1 VL with A31S, H32S, L34P, A35S
notes: IgG
B19: L3.PY/L1.PS/H2.QL (antibody, V domains shown)
VH: B1 VH with L53G, T54S, S63Q, V64L
VL: B1 VL with A31S, H32S, L34P, A35S
notes: IgG
B20: L3.PY/L1.AH/H3.AQ (antibody, V domains shown)
VH: B1 VH with L53G, T54S, S104A, G105Q
VL: B1 VL
notes: IgG
B21: L3.PY/L1.PS/H3.TAQ (antibody, V domains shown)
VH: B1 VH with L53G, T54S, A97T, S104A, G105Q
VL: B1 VL with A31S, H32S, L34P, A35S
notes: IgG
B22: L3.PY/L1.PS/H2.DY (antibody, V domains shown)
VH: B1 VH with S52D, L53Y, T54S
VL: B1 VL with A31S, H32S, L34P, A35S
notes: IgG

molecular target: T1, Human BCMA; test: SPR, IgG immobilised, 37 C
In short: (§1)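 IgGs were amine-coupled (EDC/NHS, 20 μg/mL in acetate pH 4.5) and BCMA, human or cynomolgus, was injected by kinetic titration at 0.08, 0.4, 2, 10 and 50 nM, 2 min each, in HBS-T+ pH 7.4 with 1 mg/mL BSA at 37° C or 25° C. Dissociation was followed for 2 hours.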

Row | Binder | Kd | T ½ | koff | kon
1 | B1 | 0.39 nM | 9.38 min | 0.00123 s⁻¹ | 3.16e+06 M⁻¹ s⁻¹
2 | B2 | 1.37 nM | 2.49 min | 0.00465 s⁻¹ | 3.4e+06 M⁻¹ s⁻¹
3 | B3 | 0.55 nM | 6.46 min | 0.00179 s⁻¹ | 3.26e+06 M⁻¹ s⁻¹
4 | B4 | 0.32 nM | 12.7 min | 0.000913 s⁻¹ | 2.81e+06 M⁻¹ s⁻¹
5 | B5 | 0.5 nM | 7.73 min | 0.0015 s⁻¹ | 3e+06 M⁻¹ s⁻¹
6 | B6 | 0.52 nM | 6.7 min | 0.00173 s⁻¹ | 3.32e+06 M⁻¹ s⁻¹
7 | B7 | 0.49 nM | 9.19 min | 0.00126 s⁻¹ | 2.55e+06 M⁻¹ s⁻¹
8 | B8 | 0.58 nM | 6.39 min | 0.00181 s⁻¹ | 3.13e+06 M⁻¹ s⁻¹
9 | B9 | 0.8 nM | 6 min | 0.00193 s⁻¹ | 2.42e+06 M⁻¹ s⁻¹
10 | B10 | 0.72 nM | 5.56 min | 0.00208 s⁻¹ | 2.88e+06 M⁻¹ s⁻¹
11 | B11 | 1.28 nM | 2.69 min | 0.0043 s⁻¹ | 3.35e+06 M⁻¹ s⁻¹
12 | B12 | 0.53 nM | 7.22 min | 0.0016 s⁻¹ | 3.04e+06 M⁻¹ s⁻¹
13 | B13 | 2.95 nM | 1.28 min | 0.00905 s⁻¹ | 3.07e+06 M⁻¹ s⁻¹
14 | B14 | 0.46 nM | 7.93 min | 0.00146 s⁻¹ | 3.14e+06 M⁻¹ s⁻¹
15 | B15 | 0.34 nM | 10.7 min | 0.00109 s⁻¹ | 3.18e+06 M⁻¹ s⁻¹
16 | B16 | 0.59 nM | 8.18 min | 0.00141 s⁻¹ | 2.39e+06 M⁻¹ s⁻¹
17 | B17 | 3.21 nM | 1.09 min | 0.0106 s⁻¹ | 3.3e+06 M⁻¹ s⁻¹
18 | B18 | 0.45 nM | 10.2 min | 0.00113 s⁻¹ | 2.49e+06 M⁻¹ s⁻¹
19 | B19 | 20.6 nM | 0.04 min | 0.314 s⁻¹ | 1.52e+07 M⁻¹ s⁻¹
20 | B20 | 0.65 nM | 5.85 min | 0.00197 s⁻¹ | 3.03e+06 M⁻¹ s⁻¹
21 | B21 | 0.76 nM | 4.7 min | 0.00246 s⁻¹ | 3.25e+06 M⁻¹ s⁻¹
22 | B22 | 1.12 nM | 3.2 min | 0.00361 s⁻¹ | 3.22e+06 M⁻¹ s⁻¹

molecular target: T2, cynomolgus monkey BCMA (cynomolgus monkey, UniProt A0A2K5UD97 1-53); test: SPR, IgG immobilised, 37 C
T2 construct: Soluble analyte in SPR; construct not described; also called cyBCMA; Cyno BCMA
T2 sequence (A0A2K5UD97 entry or part of it): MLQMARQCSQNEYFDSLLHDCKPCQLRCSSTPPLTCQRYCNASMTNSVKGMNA
In short: as §1

Row | Binder | Kd | T ½ | koff | kon
23 | B1 | 1.35 nM | 3.91 min | 0.00296 s⁻¹ | 2.19e+06 M⁻¹ s⁻¹
24 | B2 | 1.89 nM | 2.81 min | 0.00411 s⁻¹ | 2.17e+06 M⁻¹ s⁻¹
25 | B3 | 1.72 nM | 2.67 min | 0.00433 s⁻¹ | 2.52e+06 M⁻¹ s⁻¹
26 | B4 | 3.63 nM | 1.46 min | 0.00789 s⁻¹ | 2.17e+06 M⁻¹ s⁻¹
27 | B5 | 2.22 nM | 2.2 min | 0.00526 s⁻¹ | 2.37e+06 M⁻¹ s⁻¹
28 | B6 | 1.58 nM | 3.25 min | 0.00356 s⁻¹ | 2.25e+06 M⁻¹ s⁻¹
29 | B7 | 2.65 nM | 2.02 min | 0.00572 s⁻¹ | 2.16e+06 M⁻¹ s⁻¹
30 | B8 | 2.23 nM | 2.35 min | 0.00491 s⁻¹ | 2.2e+06 M⁻¹ s⁻¹
31 | B9 | 2.74 nM | 2.68 min | 0.00431 s⁻¹ | 1.58e+06 M⁻¹ s⁻¹
32 | B10 | 3.48 nM | 1.39 min | 0.0083 s⁻¹ | 2.39e+06 M⁻¹ s⁻¹
33 | B11 | 1.87 nM | 3.09 min | 0.00374 s⁻¹ | 2e+06 M⁻¹ s⁻¹
34 | B12 | 3.65 nM | 1.21 min | 0.00955 s⁻¹ | 2.62e+06 M⁻¹ s⁻¹
35 | B13 | 5.65 nM | 1.16 min | 0.00998 s⁻¹ | 1.77e+06 M⁻¹ s⁻¹
36 | B14 | 1.68 nM | 2.8 min | 0.00413 s⁻¹ | 2.46e+06 M⁻¹ s⁻¹
37 | B15 | 2.21 nM | 2.3 min | 0.00502 s⁻¹ | 2.27e+06 M⁻¹ s⁻¹
38 | B16 | 2.41 nM | 1.96 min | 0.00591 s⁻¹ | 2.45e+06 M⁻¹ s⁻¹
39 | B17 | 1.86 nM | 4.3 min | 0.00269 s⁻¹ | 1.45e+06 M⁻¹ s⁻¹
40 | B18 | 2.79 nM | 1.91 min | 0.00606 s⁻¹ | 2.17e+06 M⁻¹ s⁻¹
41 | B19 | 0.97 nM | 18.2 min | 0.000636 s⁻¹ | 657000 M⁻¹ s⁻¹
42 | B20 | 1.78 nM | 2.9 min | 0.00399 s⁻¹ | 2.24e+06 M⁻¹ s⁻¹
43 | B21 | 2.14 nM | 2.09 min | 0.00552 s⁻¹ | 2.58e+06 M⁻¹ s⁻¹
44 | B22 | 1.99 nM | 3.06 min | 0.00378 s⁻¹ | 1.9e+06 M⁻¹ s⁻¹
